Reference: the supplement of paper PMC9112550, “Optimization of the antimicrobial peptide Bac7 by deep mutational scanning” (BMC Biology, 2022)

Test system: Escherichia coli TOP10
Assay: shrunken log2 fold change of peptide-encoding DNA abundance (4.5 h post-induction vs induction); higher = less antimicrobial activity (less host growth inhibition)
Conditions: time post-induction: 4.5 h; library: site-saturation at positions 5, 18, 19, 20
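Note: peptides expressed intracellularly from a pBAD plasmid library in pooled LB shake-flask culture, induced with 0.3% L-arabinose, DNA abundance read by NGS, three biological replicates, DESeq2 with apeglm shrinkage.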

## RRIRERPPRLPRPRPRPLFFPRP
  shrunken log2 fold change: -0.225

## RRIRHRPPRLPRPRPRPEFYPRP
  shrunken log2 fold change: -0.0662

## RRIRMRPPRLPRPRPRPVDAPRP
  shrunken log2 fold change: 1.17

## RRIRCRPPRLPRPRPRPTRMPRP
  shrunken log2 fold change: 0.0511

## RRIRCRPPRLPRPRPRPFKMPRP
  shrunken log2 fold change: -0.854

## RRIRHRPPRLPRPRPRPRPAPRP
  shrunken log2 fold change: 0.479

## RRIRKRPPRLPRPRPRPTHCPRP
  shrunken log2 fold change: 0.251

## RRIRLRPPRLPRPRPRPTVIPRP
  shrunken log2 fold change: -0.059

## RRIRFRPPRLPRPRPRPTSNPRP
  shrunken log2 fold change: -0.617

## RRIRSRPPRLPRPRPRPVVPPRP
  shrunken log2 fold change: 0.0433

## RRIRFRPPRLPRPRPRPSFRPRP
  shrunken log2 fold change: -0.433

## RRIRQRPPRLPRPRPRPEHVPRP
  shrunken log2 fold change: 0.00725

## RRIRKRPPRLPRPRPRPYWMPRP
  shrunken log2 fold change: -0.19

## RRIRCRPPRLPRPRPRPMGLPRP
  shrunken log2 fold change: -0.0216

## RRIRKRPPRLPRPRPRPGNVPRP
  shrunken log2 fold change: 0.00843

## RRIRRRPPRLPRPRPRPKRRPRP
  shrunken log2 fold change: 0.525

## RRIRARPPRLPRPRPRPVWEPRP
  shrunken log2 fold change: 0.228

## RRIRDRPPRLPRPRPRPMTFPRP
  shrunken log2 fold change: -0.0951

## RRIRLRPPRLPRPRPRPDMQPRP
  shrunken log2 fold change: -0.0583

## RRIRTRPPRLPRPRPRPPIMPRP
  shrunken log2 fold change: -0.454

## RRIRQRPPRLPRPRPRPHHGPRP
  shrunken log2 fold change: -0.042

## RRIRPRPPRLPRPRPRPEVLPRP
  shrunken log2 fold change: -0.204

## RRIRMRPPRLPRPRPRPCHWPRP
  shrunken log2 fold change: -0.022

## RRIRPRPPRLPRPRPRPCPQPRP
  shrunken log2 fold change: -0.0291

## RRIRWRPPRLPRPRPRPDGHPRP
  shrunken log2 fold change: 0.0237

## RRIRLRPPRLPRPRPRPGGEPRP
  shrunken log2 fold change: 0.343

## RRIRARPPRLPRPRPRPSREPRP
  shrunken log2 fold change: 0.816

## RRIRLRPPRLPRPRPRPDFMPRP
  shrunken log2 fold change: -0.277

## RRIRFRPPRLPRPRPRPVHQPRP
  shrunken log2 fold change: 0.124

## RRIRDRPPRLPRPRPRPAKWPRP
  shrunken log2 fold change: 0.486

## RRIRKRPPRLPRPRPRPVSNPRP
  shrunken log2 fold change: -0.212

## RRIRHRPPRLPRPRPRPKHYPRP
  shrunken log2 fold change: -0.577

## RRIRPRPPRLPRPRPRPMMEPRP
  shrunken log2 fold change: 0.0824

## RRIRGRPPRLPRPRPRPMQCPRP
  shrunken log2 fold change: -0.0159

## RRIRFRPPRLPRPRPRPQEIPRP
  shrunken log2 fold change: -0.0426

## RRIRTRPPRLPRPRPRPEIRPRP
  shrunken log2 fold change: -0.0371

## RRIRARPPRLPRPRPRPRQQPRP
  shrunken log2 fold change: 0.277

## RRIRDRPPRLPRPRPRPTNVPRP
  shrunken log2 fold change: -0.138

## RRIRKRPPRLPRPRPRPSDFPRP
  shrunken log2 fold change: -0.00266

## RRIRSRPPRLPRPRPRPWRYPRP
  shrunken log2 fold change: -0.336

## RRIRSRPPRLPRPRPRPRWKPRP
  shrunken log2 fold change: 0.206

## RRIRERPPRLPRPRPRPDIEPRP
  shrunken log2 fold change: -0.0223

## RRIRSRPPRLPRPRPRPGVEPRP
  shrunken log2 fold change: 0.463

## RRIRFRPPRLPRPRPRPKCIPRP
  shrunken log2 fold change: -0.338

## RRIRYRPPRLPRPRPRPNPNPRP
  shrunken log2 fold change: -0.735

## RRIRGRPPRLPRPRPRPEMQPRP
  shrunken log2 fold change: 1.41

## RRIRLRPPRLPRPRPRPGSEPRP
  shrunken log2 fold change: -0.0984

## RRIRVRPPRLPRPRPRPWCSPRP
  shrunken log2 fold change: -0.638

## RRIRWRPPRLPRPRPRPWVWPRP
  shrunken log2 fold change: 0.0506

## RRIRHRPPRLPRPRPRPNEKPRP
  shrunken log2 fold change: -0.0239

## RRIRERPPRLPRPRPRPRKKPRP
  shrunken log2 fold change: -0.111

## RRIRQRPPRLPRPRPRPYRAPRP
  shrunken log2 fold change: -0.0946

## RRIRIRPPRLPRPRPRPWSLPRP
  shrunken log2 fold change: -0.449

## RRIRLRPPRLPRPRPRPIDYPRP
  shrunken log2 fold change: -0.0867

## RRIRFRPPRLPRPRPRPTAQPRP
  shrunken log2 fold change: -0.00528

## RRIRERPPRLPRPRPRPQIHPRP
  shrunken log2 fold change: -0.835

## RRIRWRPPRLPRPRPRPDDRPRP
  shrunken log2 fold change: 0.171

## RRIRERPPRLPRPRPRPYSHPRP
  shrunken log2 fold change: 0.0583

## RRIRYRPPRLPRPRPRPPDLPRP
  shrunken log2 fold change: -0.212

## RRIRYRPPRLPRPRPRPAIYPRP
  shrunken log2 fold change: -0.121

## RRIRTRPPRLPRPRPRPKRRPRP
  shrunken log2 fold change: 0.513

## RRIRNRPPRLPRPRPRPIPGPRP
  shrunken log2 fold change: -0.0332

## RRIRSRPPRLPRPRPRPSGRPRP
  shrunken log2 fold change: 0.185

## RRIRWRPPRLPRPRPRPPSYPRP
  shrunken log2 fold change: -0.116

## RRIRDRPPRLPRPRPRPRCWPRP
  shrunken log2 fold change: 0.923

## RRIRRRPPRLPRPRPRPNNFPRP
  shrunken log2 fold change: -0.00104

## RRIRWRPPRLPRPRPRPDNHPRP
  shrunken log2 fold change: -0.299

## RRIRHRPPRLPRPRPRPCQLPRP
  shrunken log2 fold change: -0.0748

## RRIRGRPPRLPRPRPRPFICPRP
  shrunken log2 fold change: 0.268

## RRIRIRPPRLPRPRPRPSDFPRP
  shrunken log2 fold change: -0.611

## RRIRARPPRLPRPRPRPDSMPRP
  shrunken log2 fold change: 0.02

## RRIRSRPPRLPRPRPRPGNGPRP
  shrunken log2 fold change: -0.0508

## RRIRSRPPRLPRPRPRPWSSPRP
  shrunken log2 fold change: 0.0531

## RRIRCRPPRLPRPRPRPNVPPRP
  shrunken log2 fold change: -0.154

## RRIRMRPPRLPRPRPRPPDEPRP
  shrunken log2 fold change: 2.96

## RRIRFRPPRLPRPRPRPTSYPRP
  shrunken log2 fold change: -0.43

## RRIRMRPPRLPRPRPRPIVRPRP
  shrunken log2 fold change: -0.0408

## RRIRFRPPRLPRPRPRPPKIPRP
  shrunken log2 fold change: 0.145

## RRIRERPPRLPRPRPRPREGPRP
  shrunken log2 fold change: 0.46

## RRIRQRPPRLPRPRPRPNGYPRP
  shrunken log2 fold change: -0.121

## RRIRLRPPRLPRPRPRPFSPPRP
  shrunken log2 fold change: 2.3

## RRIRVRPPRLPRPRPRPHRVPRP
  shrunken log2 fold change: 0.133

## RRIRARPPRLPRPRPRPDDVPRP
  shrunken log2 fold change: 0.0875

## RRIRARPPRLPRPRPRPYWIPRP
  shrunken log2 fold change: -0.556

## RRIRPRPPRLPRPRPRPLKGPRP
  shrunken log2 fold change: 0.045

## RRIRIRPPRLPRPRPRPNENPRP
  shrunken log2 fold change: -0.59

## RRIRSRPPRLPRPRPRPDMDPRP
  shrunken log2 fold change: -0.201

## RRIRHRPPRLPRPRPRPRYGPRP
  shrunken log2 fold change: -0.629

## RRIRKRPPRLPRPRPRPYTCPRP
  shrunken log2 fold change: -0.175

## RRIRARPPRLPRPRPRPPRDPRP
  shrunken log2 fold change: 1.04

## RRIRHRPPRLPRPRPRPANTPRP
  shrunken log2 fold change: -0.0313

## RRIRERPPRLPRPRPRPLVVPRP
  shrunken log2 fold change: 0.0509

## RRIRLRPPRLPRPRPRPTWTPRP
  shrunken log2 fold change: -0.0607

## RRIRVRPPRLPRPRPRPTSYPRP
  shrunken log2 fold change: -0.45

## RRIRFRPPRLPRPRPRPMQAPRP
  shrunken log2 fold change: 0.119

## RRIRYRPPRLPRPRPRPHSPPRP
  shrunken log2 fold change: -0.0755

## RRIRARPPRLPRPRPRPSWRPRP
  shrunken log2 fold change: 0.263

## RRIRIRPPRLPRPRPRPNNIPRP
  shrunken log2 fold change: -0.937

## RRIRERPPRLPRPRPRPYCCPRP
  shrunken log2 fold change: -0.899

## RRIRMRPPRLPRPRPRPGHLPRP
  shrunken log2 fold change: 0.0373

## RRIRDRPPRLPRPRPRPPWIPRP
  shrunken log2 fold change: -0.29

## RRIRVRPPRLPRPRPRPAVLPRP
  shrunken log2 fold change: 1.75

## RRIRARPPRLPRPRPRPSCYPRP
  shrunken log2 fold change: 0.0075

## RRIRVRPPRLPRPRPRPAISPRP
  shrunken log2 fold change: -0.122

## RRIRCRPPRLPRPRPRPLVSPRP
  shrunken log2 fold change: -0.245

## RRIRMRPPRLPRPRPRPRQEPRP
  shrunken log2 fold change: 1.13

## RRIRQRPPRLPRPRPRPSKMPRP
  shrunken log2 fold change: -0.0686

## RRIRYRPPRLPRPRPRPLCNPRP
  shrunken log2 fold change: -0.0925

## RRIRKRPPRLPRPRPRPAKDPRP
  shrunken log2 fold change: 0.247

## RRIRGRPPRLPRPRPRPDKVPRP
  shrunken log2 fold change: 0.32

## RRIRFRPPRLPRPRPRPALTPRP
  shrunken log2 fold change: 0.248

## RRIRIRPPRLPRPRPRPDAMPRP
  shrunken log2 fold change: -0.112

## RRIRNRPPRLPRPRPRPEGYPRP
  shrunken log2 fold change: -0.169

## RRIRVRPPRLPRPRPRPVANPRP
  shrunken log2 fold change: -0.0212

## RRIRRRPPRLPRPRPRPWSCPRP
  shrunken log2 fold change: 0.0681

## RRIRERPPRLPRPRPRPMGWPRP
  shrunken log2 fold change: -0.218

## RRIRVRPPRLPRPRPRPMQAPRP
  shrunken log2 fold change: -0.0023

## RRIRFRPPRLPRPRPRPKRPPRP
  shrunken log2 fold change: 0.755

## RRIRQRPPRLPRPRPRPNCGPRP
  shrunken log2 fold change: 0.0184

## RRIRGRPPRLPRPRPRPIQFPRP
  shrunken log2 fold change: -0.146

## RRIRDRPPRLPRPRPRPQDCPRP
  shrunken log2 fold change: -0.00195

## RRIRVRPPRLPRPRPRPSPYPRP
  shrunken log2 fold change: -0.409

## RRIRARPPRLPRPRPRPYECPRP
  shrunken log2 fold change: -0.327

## RRIRKRPPRLPRPRPRPHLLPRP
  shrunken log2 fold change: 0.00821

## RRIRFRPPRLPRPRPRPVAMPRP
  shrunken log2 fold change: -0.0306

## RRIRHRPPRLPRPRPRPHFKPRP
  shrunken log2 fold change: -0.455

## RRIRCRPPRLPRPRPRPSIRPRP
  shrunken log2 fold change: -0.608

## RRIRNRPPRLPRPRPRPLTFPRP
  shrunken log2 fold change: -0.0233

## RRIRGRPPRLPRPRPRPHYRPRP
  shrunken log2 fold change: 0.231

## RRIRGRPPRLPRPRPRPSKKPRP
  shrunken log2 fold change: 0.609

## RRIRSRPPRLPRPRPRPYYQPRP
  shrunken log2 fold change: -0.608

## RRIRARPPRLPRPRPRPLYIPRP
  shrunken log2 fold change: -0.293

## RRIRFRPPRLPRPRPRPKRYPRP
  shrunken log2 fold change: 0.0178

## RRIRPRPPRLPRPRPRPSQPPRP
  shrunken log2 fold change: 0.122

## RRIRARPPRLPRPRPRPLNKPRP
  shrunken log2 fold change: 0.028

## RRIRHRPPRLPRPRPRPKSCPRP
  shrunken log2 fold change: -0.0344

## RRIRTRPPRLPRPRPRPKYQPRP
  shrunken log2 fold change: -0.68

## RRIRPRPPRLPRPRPRPSYRPRP
  shrunken log2 fold change: -0.342

## RRIRYRPPRLPRPRPRPEMCPRP
  shrunken log2 fold change: -0.238

## RRIRKRPPRLPRPRPRPGEAPRP
  shrunken log2 fold change: 1.09

## RRIRDRPPRLPRPRPRPCVPPRP
  shrunken log2 fold change: -0.135

## RRIRRRPPRLPRPRPRPTLAPRP
  shrunken log2 fold change: 0.939

## RRIRLRPPRLPRPRPRPGQRPRP
  shrunken log2 fold change: 0.0889

## RRIRQRPPRLPRPRPRPSVQPRP
  shrunken log2 fold change: -0.0622

## RRIRRRPPRLPRPRPRPKQGPRP
  shrunken log2 fold change: -0.079

## RRIRSRPPRLPRPRPRPQEDPRP
  shrunken log2 fold change: -0.244

## RRIRPRPPRLPRPRPRPNAPPRP
  shrunken log2 fold change: 0.0216

## RRIRGRPPRLPRPRPRPQYLPRP
  shrunken log2 fold change: 0.0284

## RRIRNRPPRLPRPRPRPPYMPRP
  shrunken log2 fold change: -1.13

## RRIRVRPPRLPRPRPRPHWLPRP
  shrunken log2 fold change: -0.291
